Measurements taken from the supplement of paper PMC10266784.

B1: library; numbered along this chain (parent)
chain: MAAAAAAAAEQQSSNGPVKKSMREKAVERRSVNKEHNSNFKAGYIPIDEDRLHKTGLRGRKGNLAICVIILLFILAVINLIITLVIWAVIRIGPNGCDSMEFHESGLLRFKQVSDMGVIHPLYKSTVGGRRNENLVITGNNQPIVFQQGTTKLSVENNKTSITSDIGMQFFDPRTQNILFSTDYETHEFHLPSGVKSLNVQKASTERITSNATSDLNIKVDGRAIVRGNEGVFIMGKTIEFHMGGNMELKAENSIILNGSVMVSTTRLPSSSSGDQLGSGDWVRYKLCMCADGTLFKVQVTSQNMGCQISDNPCGNTH

Variants of: B1
Assay: SGCB cell-surface expression functional score (HA stain, bin4 vs bin1, normalised to synonymous) (log10 ratio); higher = more cell-surface SGCB (functional)
How it was run: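 HEK293 cells stably expressing alpha-, gamma- and delta-sarcoglycan received codon-saturation libraries of HA-tagged, YFP-fused human beta-sarcoglycan by lentiviral transduction at MOI <0.1, performed in duplicate. Cells positive for YFP were sorted after 72 hours and cultured for 5–7 days, then stained on ice with Alexa Fluor 647 anti-HA and fixed. Fixed cells were sorted into four 5% intensity bins and amplicon-sequenced, and the log ratio of highest-bin to lowest-bin variant frequency, as a median over codons and transductions, gives the functional score. Per section, synonymous variants were scaled to mean 0, SD 0.5.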

SGCB cell-surface expression functional score (log10) of substitutions, site by site:
N258: D 0.39 | Y 0.03 | R 0.61 | Q 0.63 | I -0.1 | T -0.05 | S 0.66 | P -1.25 | E 0 | M 0.62 | F -0.09 | A 0.1 | C 0.74 | K 0.55 | H 0.33 | L 0.61 | W 0 | V 0.3 | G 0.43
G274: Y 0.47 | W -0.13 | P -0.32 | F -0.16 | S 0.17 | Q -0.28 | V -0.14 | T 0.16 | K -0.77 | M -0.11 | N -0.16 | C -0.61 | L 0.03 | I 0.31 | D -0.37 | E -0.62 | H -1.17 | A -0.37 | R -0.37
L257: Y 0.3
G259: D -1.69 | V 0.07 | A 0.9 | F -0.46 | H 0.33 | E -1.29 | S 0.28 | L -0.06 | M -1.05 | I 0.63 | W -1.53 | K -1.06 | Q 0.7 | T 0.55 | R -0.34 | C -0.44 | P -0.37 | N -0.51 | Y -1.22
S264: H 0.22 | K 0.5 | F 0.58 | M 0.69 | P 0.06 | C -0.1 | V 0.6 | A 0.51 | Q 0.39 | R 0.03 | G 0.23 | T 0.31 | Y 0.34 | L 0.68 | D 0.96 | W -0.2 | N -0.3 | E 0.53 | I 0.34
M262: S 0.7 | D -0.81 | Q 0.93 | E 0.65 | P -0.34 | K 0.79 | L 0.57 | H 1.32 | Y 0.79 | C 0.37 | N 0 | T 0.19 | G 0.53 | F 0.95 | R 0.7 | A 0.37 | V 0.78 | I -0.11 | W 0.08
L268: G -0.22 | R 0.02 | C -0.57 | N 0 | E -0.13 | H 0 | K -1.12 | I 0.38 | Q -0.01 | F 0.46 | T -0.02 | D 0.78 | W 0.53 | M 0.61 | P -0.02 | S 0.48 | Y -0.02 | V 0.2 | A 0.63
S273: A -0.68 | Q -0.2 | C -0.58 | D -0.07 | W 0.09 | E 0.08 | Y 0.11 | M -1.46 | I 0.05 | R -0.14 | G -0.18 | K -0.55 | F -1.31 | N 0.34 | H -0.82 | P -0.33 | V -0.79 | L -0.2 | T -0.52
D275: A -0.05 | C -0.13 | F -0.57 | I -0.42 | H -0.97 | N -0.12 | L -0.13 | G 0.01 | K -0.82 | E -0.21 | M 0.18
S270: C -0.02 | Q 0.47 | F 1.1 | H 0.54 | K -0.13 | R 0.24 | E -0.45 | A 0.44 | M 0.77 | G 0.32 | P 0 | D 0.32 | Y 0.41 | I 0.33 | N -0.08 | T 0.45 | L 0.64 | V 0.24
T265: K 0.32 | I 0.58 | E 0.2 | D 0 | Y 0.55 | Q 0.21 | M 1.41 | V 0.52 | G 0.47 | A 0 | C -0.3 | L 0.73 | S 0.4 | P 0.25 | R 0.4 | N 0.79 | W 0.38 | H 0.75 | F 0.68
R267: D -0.54 | I -0.11 | E -0.053 | K 0.76 | F 0.59 | S 0.28 | Q -0.244 | N 0 | H 0.05 | C 0.16 | M -0.73 | T -0.49 | L -0.05 | Y 0.2 | G 0.49 | P -0.19 | A 0.63 | W -0.83 | V 0.49
S272: D -0.3 | E 0.23 | N 0.08 | Q 0.34 | C -0.03 | I 0.34 | W -0.13 | K 0.11 | P 0.21 | G 0.1 | A 0.37 | T -0.52 | M -1.59 | F 0.1 | V -0.14 | R 0.18 | Y -0.29 | H -0.05 | L 0.07
P269: V 0 | W 0.56 | F 0.8 | T 0.41 | K 0.01 | C 0.49 | S 0.18 | R 0.75 | H 0.32 | A -0.23 | I 0.5 | L 0.23 | M -0.48 | Q 0.32 | N 0.54 | Y 0.73 | E 0 | D -0.09 | G 0.44
S260: N 0.25 | E -0.09 | I -0.71 | R 0.87 | Y -0.87 | P 0.71 | Q -0.24 | A 0.52 | C 0.5 | V 0.01 | F 0.4 | G 0.77 | L -0.22 | T 0.41 | K -0.81 | W 0.61 | M 0.98 | H 0.83 | D -0.04
V261: T 0.23 | N -0.63 | G -0.18 | A -0.02 | F -1.31 | H -1.2 | W 0.306 | L 0.42 | E 0.05 | Y -1.15 | C 0.48 | P -0.15 | I 0.29 | Q -1.12 | D 0.41 | K -1.55 | R -0.69 | S -0.04 | M -0.12
V263: Q -1.36 | K -0.87 | C 1 | L 0.09 | S -0.39 | D -0.53 | G -0.03 | A -0.4 | M -1.03 | F 0.35 | T 0.4 | E -0.52 | W 0.52 | P -1.18 | I 0.77 | R -0.48 | N 0.66 | H 0.31 | Y 0.3
S271: L 0.07 | V 0.17 | R -0.24 | A 0 | K 0.11 | T 0.3 | M -0.03 | P -0.56 | E -0.22 | Y -0.26 | C -0.06 | W -0.22 | D -0.12 | H -0.19 | G 0.33 | Q -0.08 | I -0.19 | N 0.21 | F 0.35
T266: M 1.39 | S 0.4 | L 0.47 | K 1.15 | C 1.12 | R 0.23 | P 0.54 | Q 1.04 | G 1.23 | Y 0.19 | D 0.4 | V 0.35 | E 1.22 | I 0.26 | W 0.59 | A 0.63 | H 0.55 | F 0.7 | N 0.54
